# According to the supplement of paper PMC9112550, “Optimization of the antimicrobial peptide Bac7 by deep mutational scanning” (BMC Biology, 2022):
# Test system: Escherichia coli TOP10
# Assay: shrunken log2 fold change of peptide-encoding DNA abundance (4.5 h post-induction vs induction); higher = less antimicrobial activity (less host growth inhibition)
# Details: time post-induction: 4.5 h; library: site-saturation at positions 5, 18, 19, 20
# 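Further: peptides expressed intracellularly from a pBAD plasmid library in pooled LB shake-flask culture, induced with 0.3% L-arabinose, DNA abundance read by NGS, three biological replicates, DESeq2 with apeglm shrinkage.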
row,Sequence,shrunken log2 fold change
1,RRIRVRPPRLPRPRPRPTRCPRP,0.404
2,RRIRNRPPRLPRPRPRPEIGPRP,0.195
3,RRIRPRPPRLPRPRPRPEYVPRP,-0.0441
4,RRIRKRPPRLPRPRPRPFHYPRP,-0.0954
5,RRIRLRPPRLPRPRPRPGIDPRP,-0.0208
6,RRIRRRPPRLPRPRPRPLLPPRP,0.574
7,RRIRRRPPRLPRPRPRPQAWPRP,0.0536
8,RRIRLRPPRLPRPRPRPHFEPRP,0.118
9,RRIRERPPRLPRPRPRPVNGPRP,-0.323
10,RRIRQRPPRLPRPRPRPSGQPRP,-0.0485
11,RRIRGRPPRLPRPRPRPLCVPRP,0.689
12,RRIRARPPRLPRPRPRPPEAPRP,0.699
13,RRIRNRPPRLPRPRPRPPWFPRP,0.349
14,RRIRPRPPRLPRPRPRPFHRPRP,-0.0334
15,RRIRYRPPRLPRPRPRPSQPPRP,-0.0421
16,RRIRLRPPRLPRPRPRPTYDPRP,0.0466
17,RRIRHRPPRLPRPRPRPSTWPRP,-0.674
18,RRIRCRPPRLPRPRPRPRRDPRP,0.0823
19,RRIRQRPPRLPRPRPRPFEAPRP,-0.0497
20,RRIRHRPPRLPRPRPRPNDNPRP,-1.03
21,RRIRKRPPRLPRPRPRPFIKPRP,-0.0863
22,RRIRCRPPRLPRPRPRPCMDPRP,-0.09
23,RRIRIRPPRLPRPRPRPSICPRP,-0.814
24,RRIRNRPPRLPRPRPRPNDHPRP,-0.153
25,RRIRYRPPRLPRPRPRPHSPPRP,-0.0755

row,Sequence,shrunken log2 fold change
1,RRIRDRPPRLPRPRPRPMVCPRP,0.141
2,RRIRNRPPRLPRPRPRPHRQPRP,-0.0962
3,RRIRWRPPRLPRPRPRPQECPRP,-0.0185
4,RRIRRRPPRLPRPRPRPESYPRP,0.0503
5,RRIRRRPPRLPRPRPRPLPEPRP,0.731
6,RRIRSRPPRLPRPRPRPIWRPRP,0.639
7,RRIRARPPRLPRPRPRPIRQPRP,-0.00194
8,RRIRYRPPRLPRPRPRPAQEPRP,0.075
9,RRIRCRPPRLPRPRPRPMMMPRP,2.91
10,RRIRCRPPRLPRPRPRPSIEPRP,-0.123
11,RRIRTRPPRLPRPRPRPVMMPRP,-0.199
12,RRIRERPPRLPRPRPRPIQTPRP,0.0703
13,RRIRKRPPRLPRPRPRPDWPPRP,0.168
14,RRIRPRPPRLPRPRPRPGWIPRP,-0.0354
15,RRIRKRPPRLPRPRPRPPASPRP,0.424
16,RRIRIRPPRLPRPRPRPSARPRP,-0.067
17,RRIRIRPPRLPRPRPRPRFTPRP,-0.043
18,RRIRRRPPRLPRPRPRPRLSPRP,-0.0979
19,RRIRGRPPRLPRPRPRPHVPPRP,0.103
20,RRIRFRPPRLPRPRPRPTKYPRP,-0.635
21,RRIRQRPPRLPRPRPRPCNLPRP,0.0555
22,RRIRPRPPRLPRPRPRPPGDPRP,0.567
23,RRIRSRPPRLPRPRPRPKFYPRP,-0.371
24,RRIRQRPPRLPRPRPRPHGGPRP,-0.0841
25,RRIRRRPPRLPRPRPRPPPIPRP,0.978

row,Sequence,shrunken log2 fold change
1,RRIRPRPPRLPRPRPRPFVSPRP,-0.443
2,RRIRRRPPRLPRPRPRPIKIPRP,-0.0791
3,RRIRCRPPRLPRPRPRPQNAPRP,-0.372
4,RRIRVRPPRLPRPRPRPNQYPRP,-0.864
5,RRIRERPPRLPRPRPRPNQKPRP,-0.108
6,RRIRTRPPRLPRPRPRPTWYPRP,-0.0546
7,RRIRKRPPRLPRPRPRPGSCPRP,0.346
8,RRIRARPPRLPRPRPRPMWYPRP,-0.0479
9,RRIRERPPRLPRPRPRPVFHPRP,-0.238
10,RRIRKRPPRLPRPRPRPIVAPRP,0.399
11,RRIRRRPPRLPRPRPRPLYLPRP,0.926
12,RRIRVRPPRLPRPRPRPIIMPRP,0.0741
13,RRIRHRPPRLPRPRPRPTCEPRP,0.012
14,RRIRNRPPRLPRPRPRPTCAPRP,0.161
15,RRIRLRPPRLPRPRPRPADRPRP,-0.0121
16,RRIRMRPPRLPRPRPRPCPAPRP,0.574
17,RRIRGRPPRLPRPRPRPSNRPRP,0.113
18,RRIRWRPPRLPRPRPRPRNIPRP,0.00817
19,RRIRCRPPRLPRPRPRPMDSPRP,-0.142
20,RRIRMRPPRLPRPRPRPWTAPRP,-0.0195
21,RRIRRRPPRLPRPRPRPFFKPRP,-0.177
22,RRIRPRPPRLPRPRPRPVTHPRP,-0.227
23,RRIRERPPRLPRPRPRPFWSPRP,-0.109
24,RRIRFRPPRLPRPRPRPAIPPRP,-0.0151
25,RRIRMRPPRLPRPRPRPEYIPRP,0.0145

row,Sequence,shrunken log2 fold change
1,RRIRPRPPRLPRPRPRPDNNPRP,-0.512
2,RRIRKRPPRLPRPRPRPVCSPRP,0.0361
3,RRIRGRPPRLPRPRPRPHFLPRP,1.03
4,RRIRDRPPRLPRPRPRPSIIPRP,-0.266
5,RRIRPRPPRLPRPRPRPHKWPRP,-0.216
6,RRIRSRPPRLPRPRPRPMPCPRP,0.216
7,RRIRPRPPRLPRPRPRPPRMPRP,0.412
8,RRIRNRPPRLPRPRPRPEPFPRP,-0.0904
9,RRIRHRPPRLPRPRPRPHMHPRP,-0.687
10,RRIRCRPPRLPRPRPRPTSDPRP,0.129
11,RRIRPRPPRLPRPRPRPVGFPRP,0.37
12,RRIRARPPRLPRPRPRPWSVPRP,0.0303
13,RRIRTRPPRLPRPRPRPNLYPRP,-0.255
14,RRIRFRPPRLPRPRPRPSQEPRP,-0.286
15,RRIRFRPPRLPRPRPRPPCMPRP,-0.125
16,RRIRCRPPRLPRPRPRPFISPRP,-0.689
17,RRIRIRPPRLPRPRPRPFLQPRP,-0.248
18,RRIRLRPPRLPRPRPRPGQCPRP,-0.0373
19,RRIRIRPPRLPRPRPRPCLTPRP,0.0747
20,RRIRQRPPRLPRPRPRPNNSPRP,-0.904
21,RRIRFRPPRLPRPRPRPENCPRP,-0.855
22,RRIRSRPPRLPRPRPRPFFQPRP,-0.105
23,RRIRERPPRLPRPRPRPWPHPRP,-0.0947
24,RRIRYRPPRLPRPRPRPILAPRP,-0.353
25,RRIRERPPRLPRPRPRPMKDPRP,0.13

row,Sequence,shrunken log2 fold change
1,RRIRNRPPRLPRPRPRPTRQPRP,0.196
2,RRIRERPPRLPRPRPRPHDSPRP,-0.00973
3,RRIRCRPPRLPRPRPRPWIGPRP,-0.775
4,RRIRTRPPRLPRPRPRPAVYPRP,-0.181
5,RRIRKRPPRLPRPRPRPDATPRP,2.81
6,RRIRQRPPRLPRPRPRPEEIPRP,0.0447
7,RRIRHRPPRLPRPRPRPTMRPRP,0.402
8,RRIRGRPPRLPRPRPRPGPSPRP,1.05
9,RRIRTRPPRLPRPRPRPVTTPRP,-0.116
10,RRIRCRPPRLPRPRPRPVMPPRP,-0.139
11,RRIRNRPPRLPRPRPRPIYYPRP,-0.977
12,RRIRHRPPRLPRPRPRPDQHPRP,-0.00237
13,RRIRMRPPRLPRPRPRPVQFPRP,0.276
14,RRIRERPPRLPRPRPRPNSKPRP,-0.863
15,RRIRARPPRLPRPRPRPVDFPRP,0.39
16,RRIRKRPPRLPRPRPRPKKQPRP,-0.119
17,RRIRSRPPRLPRPRPRPRRMPRP,0.141
18,RRIRYRPPRLPRPRPRPEKGPRP,-0.00176
19,RRIRVRPPRLPRPRPRPQNLPRP,-0.672
20,RRIRARPPRLPRPRPRPETAPRP,0.236
21,RRIRTRPPRLPRPRPRPLTKPRP,0.0652
22,RRIRGRPPRLPRPRPRPHYIPRP,-0.0882
23,RRIRERPPRLPRPRPRPCAEPRP,-0.0868
24,RRIRLRPPRLPRPRPRPDQGPRP,-0.034
25,RRIRPRPPRLPRPRPRPQHTPRP,0.769

row,Sequence,shrunken log2 fold change
1,RRIRYRPPRLPRPRPRPDCCPRP,-0.115
2,RRIRPRPPRLPRPRPRPCSWPRP,0.0726
3,RRIRVRPPRLPRPRPRPMFPPRP,0.086
4,RRIRTRPPRLPRPRPRPQTQPRP,-0.0967
5,RRIRTRPPRLPRPRPRPQILPRP,-0.105
6,RRIRSRPPRLPRPRPRPPLYPRP,-0.0605
7,RRIRFRPPRLPRPRPRPWHHPRP,-0.325
8,RRIRTRPPRLPRPRPRPEMRPRP,0.825
9,RRIRNRPPRLPRPRPRPHLYPRP,-0.22
10,RRIRNRPPRLPRPRPRPMNQPRP,-0.123
11,RRIRKRPPRLPRPRPRPKVSPRP,-0.0412
12,RRIRKRPPRLPRPRPRPRYEPRP,0.362
13,RRIRSRPPRLPRPRPRPKKPPRP,0.0165
14,RRIRWRPPRLPRPRPRPGDVPRP,0.0583
15,RRIRMRPPRLPRPRPRPEFIPRP,0.01
16,RRIRIRPPRLPRPRPRPDFRPRP,-0.371
17,RRIRYRPPRLPRPRPRPWLQPRP,-0.216
18,RRIRDRPPRLPRPRPRPINYPRP,0.0585
19,RRIRGRPPRLPRPRPRPAAYPRP,0.929
20,RRIRGRPPRLPRPRPRPMIYPRP,0.0378
21,RRIRPRPPRLPRPRPRPHELPRP,-0.0456
22,RRIRVRPPRLPRPRPRPRETPRP,0.513
23,RRIRWRPPRLPRPRPRPTTCPRP,-0.00726
24,RRIRIRPPRLPRPRPRPAMHPRP,-0.221
25,RRIRGRPPRLPRPRPRPDIGPRP,0.663
